Reference: patent US20150098939A1 (Sanofi, published 2015)
Numbering of substitutions follows the chain as printed.

Experiments:
hGPVI-hFc fusion protein [1] = molecular target: T1, hGPVI-hFc fusion protein (human); assay: competition ELISA, hGPVI-Fc on collagen-coated plates (FIG. 1A)
T1 construct: also called GPVI-Fc; human GPVI-Fc fusion protein
Description: (§1) A secondary screening was performed to characterize functional properties of all human GPVI-specific mAbs for their ability to block the binding of collagen to human GPVI-Fc fusion protein in a competition ELISA binding assay. Custom-made collagen coated 96-well plates (Pierce) were used. Pre-incubated mixture of human GPVI-Fc fusion protein and hybridoma supernatants were added to the plate and collagen-human GPVI-Fc complex was detected by using goat anti-human IgG-Fc conjugated with horseradish peroxidase (Sigma; #A0170). The antibody binding was visualized by adding TMB-H2O2 buffer and read at a wavelength of 450 nm. […] The blocking properties of pre-selected mAbs to human GPVI were confirmed to be dose-dependent using a competition ELISA assay as shown in FIG. 1A.

[2] = molecular target: T2, human GPVI protein, soluble extracellular domain (D1 and D2) (human, UniProt Q9HCN6 21-267); assay: SPR (BIAcore 2000), mAb captured by anti-Fc, human GPVI in solution
T2 construct: extracellular domain; also called hGPVI; human glycoprotein VI
T2 sequence (looked up): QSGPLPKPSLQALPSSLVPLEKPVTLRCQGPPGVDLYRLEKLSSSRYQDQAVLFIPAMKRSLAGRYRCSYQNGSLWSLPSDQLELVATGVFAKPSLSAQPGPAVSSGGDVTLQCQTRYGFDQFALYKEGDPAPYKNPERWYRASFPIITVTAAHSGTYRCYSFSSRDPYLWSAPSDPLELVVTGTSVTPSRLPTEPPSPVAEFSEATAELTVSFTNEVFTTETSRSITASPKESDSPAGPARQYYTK
Description: A last screening was performed by Surface Plasmon Resonance (BIAcore 2000) to evaluate binding properties of GPVI blocking antibodies. In this analysis, we evaluated the interaction of the human GPVI protein with the anti-human GPVI mAbs fixed to anti-Fc antibody covalently linked to CM chips. Binding kinetics of the individual mAbs were performed using the protocol described by Canziani et al 2004. Anal. Biochem. 325: 301-307.

hGPVI-hFc fusion protein [3] = molecular target: T1, hGPVI-hFc fusion protein; assay: DELFIA competition assay: IgG preincubated with GPVI-Fc (3 µg/ml), binding to collagen-coated plate, Test 1
Description: (§2) Collagen coated 384 well plates (Pierce) were blocked with 3% BSA for 2 h. Increasing concentrations of IgG or its corresponding Fab fragment produced by Ficin cleavage (0.3-20 μg/ml) were incubated with recombinant GPVI (Fc-fusion protein of the extracellular GPVI domain; 3 μg/ml) for 30 min. The GPVI-IgG mixture was added to collagen coated plates and incubated for 1 h at RT. Next, 384 well plates were washed (DELFIA wash buffer, Perkin Elmer) five times and Eu-labelled anti-human IgG (100 ng/ml Perkin Elmer) was added. Following 1 h incubation at room temperature plates were washed again five times, enhancement solution (Perkin Elmer) was added and incubated for 10 min. Fluorescence was detected at 360/612 nm using a Tecan Ultra reader.

hGPVI-hFc fusion protein [4] = molecular target: T1, hGPVI-hFc fusion protein; assay: DELFIA competition assay: IgG preincubated with GPVI-Fc (3 µg/ml), binding to collagen-coated plate, Test 2
Description: as §2

[5] = molecular target: T3, primate GPVI-Fc fusion protein (Macaca fascicularis) (Macaca fascicularis (cynomolgus), UniProt Q9HCN6 21-205 (human entry)); assay: competition ELISA against Maccaca GPVI-Fc: inhibition by purified IgG of the binding of GPVI-Fc to collagen; blocked ligand: collagen
T3 construct: also called Maccaca GPVI-Fc; primate GPVI-Fc protein; not shown: Fc part of the primate GPVI-Fc fusion is not described
T3 chain: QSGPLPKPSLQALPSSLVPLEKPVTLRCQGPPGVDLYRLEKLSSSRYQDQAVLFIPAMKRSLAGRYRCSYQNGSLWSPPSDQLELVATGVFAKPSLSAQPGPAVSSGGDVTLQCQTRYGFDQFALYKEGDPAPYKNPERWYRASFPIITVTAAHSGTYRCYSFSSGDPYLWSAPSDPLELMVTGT

hGPVI-hFc fusion protein [6] = molecular target: T1, hGPVI-hFc fusion protein; assay: competition ELISA: purified IgG pre-incubated with hGPVI-Fc, mixture added to collagen-coated plate, bound GPVI-Fc detected with anti-human IgG-Fc-HRP (OD 450 nm); blocked ligand: collagen
Description: as §1

hGPVI-hFc fusion protein [7] = molecular target: T1, hGPVI-hFc fusion protein; assay: DELFIA competition assay: Fab preincubated with GPVI-Fc (3 µg/ml), binding to collagen-coated plate, Test 1
Description: as §2

hGPVI-hFc fusion protein [8] = molecular target: T1, hGPVI-hFc fusion protein; assay: DELFIA competition assay: Fab preincubated with GPVI-Fc (3 µg/ml), binding to collagen-coated plate, Test 2
Description: as §2

[9] = molecular target: T2, human GPVI protein, soluble …; assay: SPR (Biacore 3000), Fab immobilised, human GPVI analyte
Description: Surface plasmon resonance technology on a Biacore 3000 (GE Healthcare) was used for detailed kinetic characterization of purified antibody fragments. A direct binding assay was used with the anti-GPVI Fab as the ligand and human GPVI as analyte. Typically, 500 RU of anti-GPVI Fab were immobilized on a research grade CM5 chip by amine reactive coupling, resulting in an Rmax of 200 RU for the bound GPVI molecule. Binding kinetics were measured over a concentration range typically between 0.8 to 208 nM in HBS-EP (10 mM HEPES pH 7.4, 150 mM NaCl, 3 mM EDTA, 0.005% Surfactant P20) at a flow rate of 30 μl/min. Chip surfaces were regenerated with 10 mM glycine pH 2.0. Kinetic parameters were analyzed and calculated in the BIAevaluation program package (version 4.1) using a flow cell without immobilized Fab as reference. A 1:1 binding model with mass transfer was applied for a global fit of the data for curves.

[10] = molecular target: T2, human GPVI protein, soluble …; assay: SPR (Biacore 3000), human GPVI immobilised, Fab analyte
Description: Surface plasmon resonance technology on a Biacore 3000 (GE Healthcare) was used for detailed kinetic characterisation of purified antibody fragments. An assay with immobilised human GPVI was used. Typically, 300 RU of GPVI were immobilised on a research grade CM5 chip by amine reactive coupling, resulting in an Rmax of 200 RU for the bound antibody fragment. Binding kinetics were measured over a concentration range between 3.2 to 112 nM in HBS-EP (10 mM HEPES pH 7.4, 150 mM NaCl, 3 mM EDTA, 0.005% Surfactant P20) at a flow rate of 30 μl/min. Chip surfaces were regenerated with 10 mM glycine pH2.0. Kinetic parameters were analysed and calculated in the BIAevaluation program package (version 4.1) using a flow cell without immobilised GPVI as reference. A 1:1 binding model with mass transfer was applied for a global fit of the data for curves corresponding to analyte concentrations from 3-56 nM of Fab fragment.
Note that the Biacore assay used to measure the data in this example is different in terms of immobilized binding partner (GPVI versus the mAb/Fab fragment) and this leads to the different Biacore affinities as reported in Table 5.

B1: anti-GPVI mAb from hybridoma clone 390 (antibody, mouse IgG1, kappa, V domains shown)
VH: QVQLKESGPGLVAPSQSLSITCTVSGFSLTGYGVNWVRQPPGKGLEWLGMIWGDGSTDYNSTLKSRLSISKDNSKSQVFLKMNSLQTDDTARYYCARDLPMDYWGQGTSVTVSS
VL: DIQMTQSPSSLSASLGGKVTITCKASQDINKYIAWYQHKPGKGPSLLIHYTSTLQPGIPSRFSGSGSGRDYSFSISNLEPEDIATYYCLQYANLLTFGGGTKLEIKR
modifications: N-glycosylation site (NST) in the heavy chain variable region is occupied
notes: Mouse IgG1, kappa, purified from hybridoma; also called monoclonal antibody from clone 390; IgG from hybridoma clone 390
Question: For B1, which IC50 (hGPVI-hFc fusion protein [1]) is on record?
Answer: < 10 µg/mL

Question: What about the Kd [2] of the same binder?
Answer: 0.04 nM

Question: And the koff [2]?
Answer: 4e-06 s⁻¹

Question: And the kon [2]?
Answer: 108000 M⁻¹ s⁻¹

Question: And the IC50 (hGPVI-hFc fusion protein [3])?
Answer: 5.6 µg/mL

Question: And the IC50 (hGPVI-hFc fusion protein [4])?
Answer: 5 µg/mL

Question: What about the “IC50 (read off the curve)” value [5] of the same binder?
Answer: ~5 µg/mL

Question: What about the “IC50 (read off the curve)” value (hGPVI-hFc fusion protein [6]) of the same binder?
Answer: ~3 µg/mL

B2: Fab produced by Ficin cleavage of IgG from hybridoma clone 390 (Fab, V domains shown)
VH: B1 VH
VL: B1 VL
notes: Proteolytic Fab; also called Fab (Ficin cleavage); proteolytic Fab fragment
Question: With B2 as the binder, how does the IC50 (hGPVI-hFc fusion protein [7]) read?
Answer: 1.3 µg/mL

Question: What about the IC50 (hGPVI-hFc fusion protein [8]) of the same binder?
Answer: 1.1 µg/mL

B3: Fab 390-nG (recombinant non-glycosylated Fab of clone 390) (Fab, V domains shown)
VH: B1 VH with N60Q
VL: B1 VL
notes: Chimeric Fab from HEK293: VL fused to human constant kappa (IGKC, Q502W4); also called ANTI-GPVI Fab 390-nG construct
Question: How did the Kd [9] turn out when B3 was run?
Answer: 0.06 nM

Question: And the koff [9]?
Answer: 2.2e-05 s⁻¹

Question: What about the kon [9] of the same binder?
Answer: 348000 M⁻¹ s⁻¹

Question: What about the Kd [10] of the same binder?
Answer: 0.2 nM

Question: And the koff [10]?
Answer: 2e-05 s⁻¹

Question: What about the kon [10] of the same binder?
Answer: 102000 M⁻¹ s⁻¹
